Patent publication US20210369842A1 (Genmab, published 2021)
Changes are numbered by the printed parent chain. In names and notes the source's numbering stands.

B1: b12 (antibody, V domains shown)
VH: QVQLVQSGAEVKKPGASVKVSCQASGYRFSNFVIHWVRQAPGQRFEWMGWINPYNGNKEFSAKFQDRVTFTADTSANTAYMELRSLRSADTAVYYCARVGPYSWDDSPQDNYYMDVWGKGTTVIVSS
VL: EIVLTQSPGTLSLSPGERATFSCRSSHSIRSRRVAWYQHKPGQAPRLVIHGVSNRASGISDRFSGSGSGTDFTLTITRVEPEDFALYYCQVYGASSYTFGQGTKLERK
notes: also called monospecific, bivalent b12 antibody; gp120 specific antibody
B2: PD-L1-547-FEAR (antibody, human IgG1, lambda, V domains shown)
VH: EVQLLEPGGGLVQPGGSLRLSCEASGSTFSTYAMSWVRQAPGKGLEWVSGFSGSGGFTFYADSVRGRFTISRDSSKNTLFLQMSSLRAEDTAVYYCAIPARGYNYGSFQHWGQGTLVTVSS
VL: SYVLTQPPSVSVAPGQTARITCGGNNIGSKSVHWYQQKPGQAPVLVVYDDNDRPSGLPERFSGSNSGNTATLTISRVEAGDEADYYCQVWDSSSDHVVFGGGTKLTVLG
notes: Human IgG1 lambda with L234F, L235E, D265A and K409R (FEAR)
B3: PD-L1-547-FEALxCD137-009-HC7LC2-FEAR (bispecific antibody, human IgG1, kappa, lambda)
heavy 1: EVQLLEPGGGLVQPGGSLRLSCEASGSTFSTYAMSWVRQAPGKGLEWVSGFSGSGGFTFYADSVRGRFTISRDSSKNTLFLQMSSLRAEDTAVYYCAIPARGYNYGSFQHWGQGTLVTVSSASTKGPSVFPLAPSSKSTSGGTAALGCLVKDYFPEPVTVSWNSGALTSGVHTFPAVLQSSGLYSLSSVVTVPSSSLGTQTYICNVNHKPSNTKVDKRVEPKSCDKTHTCPPCPAPEFEGGPSVFLFPPKPKDTLMISRTPEVTCVVVAVSHEDPEVKFNWYVDGVEVHNAKTKPREEQYNSTYRVVSVLTVLHQDWLNGKEYKCKVSNKALPAPIEKTISKAKGQPREPQVYTLPPSREEMTKNQVSLTCLVKGFYPSDIAVEWESNGQPENNYKTTPPVLDSDGSFLLYSKLTVDKSRWQQGNVFSCSVMHEALHNHYTQKSLSLSPGK
light 1: SYVLTQPPSVSVAPGQTARITCGGNNIGSKSVHWYQQKPGQAPVLVVYDDNDRPSGLPERFSGSNSGNTATLTISRVEAGDEADYYCQVWDSSSDHVVFGGGTKLTVLGQPKAAPSVTLFPPSSEELQANKATLVCLISDFYPGAVTVAWKADSSPVKAGVETTTPSKQSNNKYAASSYLSLTPEQWKSHRSYSCQVTHEGSTVEKTVAPTECS
heavy 2: EVQLVESGGGLVQPGRSLRLSCTASGFSLNDYWMSWVRQAPGKGLEWVGYIDVGGSLYYAASVKGRFTISRDDSKSIAYLQMNSLKTEDTAVYYCARGGLTYGFDLWGQGTLVTVSSASTKGPSVFPLAPSSKSTSGGTAALGCLVKDYFPEPVTVSWNSGALTSGVHTFPAVLQSSGLYSLSSVVTVPSSSLGTQTYICNVNHKPSNTKVDKRVEPKSCDKTHTCPPCPAPEFEGGPSVFLFPPKPKDTLMISRTPEVTCVVVAVSHEDPEVKFNWYVDGVEVHNAKTKPREEQYNSTYRVVSVLTVLHQDWLNGKEYKCKVSNKALPAPIEKTISKAKGQPREPQVYTLPPSREEMTKNQVSLTCLVKGFYPSDIAVEWESNGQPENNYKTTPPVLDSDGSFFLYSRLTVDKSRWQQGNVFSCSVMHEALHNHYTQKSLSLSPGK
light 2: DIVMTQSPSSLSASVGDRVTITCQASEDISSYLAWYQQKPGKAPKRLIYGASDLASGVPSRFSASGSGTDYTFTISSLQPEDIATYYCHYYATISGLGVAFGGGTKVEIKRTVAAPSVFIFPPSDEQLKSGTASVVCLLNNFYPREAKVQWKVDNALQSGNSQESVTEQDSKDSTYSLSSTLTLSKADYEKHKVYACEVTHQGLSSPVTKSFNRGEC
B4: b12-FEALxPD-L1-547-FEAR (bispecific antibody)
heavy 1: QVQLVQSGAEVKKPGASVKVSCQASGYRFSNFVIHWVRQAPGQRFEWMGWINPYNGNKEFSAKFQDRVTFTADTSANTAYMELRSLRSADTAVYYCARVGPYSWDDSPQDNYYMDVWGKGTTVIVSSASTKGPSVFPLAPSSKSTSGGTAALGCLVKDYFPEPVTVSWNSGALTSGVHTFPAVLQSSGLYSLSSVVTVPSSSLGTQTYICNVNHKPSNTKVDKRVEPKSCDKTHTCPPCPAPEFEGGPSVFLFPPKPKDTLMISRTPEVTCVVVAVSHEDPEVKFNWYVDGVEVHNAKTKPREEQYNSTYRVVSVLTVLHQDWLNGKEYKCKVSNKALPAPIEKTISKAKGQPREPQVYTLPPSREEMTKNQVSLTCLVKGFYPSDIAVEWESNGQPENNYKTTPPVLDSDGSFLLYSKLTVDKSRWQQGNVFSCSVMHEALHNHYTQKSLSLSPGK
light 1: EIVLTQSPGTLSLSPGERATFSCRSSHSIRSRRVAWYQHKPGQAPRLVIHGVSNRASGISDRFSGSGSGTDFTLTITRVEPEDFALYYCQVYGASSYTFGQGTKLERKRTVAAPSVFIFPPSDEQLKSGTASVVCLLNNFYPREAKVQWKVDNALQSGNSQESVTEQDSKDSTYSLSSTLTLSKADYEKHKVYACEVTHQGLSSPVTKSFNRGEC
heavy 2: B3 heavy 1 with L409F, K413R
light 2: B3 light 1
notes: also called monovalent PD-L1 antibody; monovalent PD-L1-control antibody

Tests used:
Human PD-L1 [1] = target: T1, Human PD-L1 (human, UniProt Q9NZQ7 19-290); assay: flow cytometry on MDA-MB-231 cells, PE-conjugated goat anti-human IgG F(ab')2 as secondary
T1 construct: Amino acids 1-18 are stated as the predicted signal peptide; also called CD274; B7H1
Protocol: (§1) Cells (3-5×10⁴ cells/well) were incubated in polystyrene 96-well round-bottom plates (Greiner bio-one, cat. no. 650101) with serial dilutions of antibodies (range 0.0001 to 10 μg/mL in 5-fold dilution steps) in 50 μL PBS/0.1% BSA/0.02% azide (FACS buffer) at 4° C. for 30 min. After washing twice in FACS buffer, cells were incubated with secondary antibody at 4° C. for 30 min. As a secondary antibody, R-Phycoerythrin (PE)-conjugated goat-anti-human IgG F(ab′)₂ (Cat. no. 109-116-098, Jackson ImmunoResearch Laboratories, Inc., West Grove, Pa.) diluted 1:500 in 50 μL FACS buffer, was used for all experiments. Next, cells were washed twice in FACS buffer, re-suspended in 20 μL FACS buffer and analyzed on an iQue screener (Intellicyt Corporation, USA). Binding curves were analyzed using non-linear regression (sigmoidal dose-response with variable slope) using GraphPad Prism V75.04 software (GraphPad Software, San Diego, Calif., USA).

Human PD-L1 [2] = target: T1, Human PD-L1; assay: flow cytometry on PC-3 cells, PE-conjugated goat anti-human IgG F(ab')2 as secondary
Protocol: as §1

Human PD-L1 [3] = target: T1, Human PD-L1; assay: flow cytometry on SK-MES-1 cells, PE-conjugated goat anti-human IgG F(ab')2 as secondary
Protocol: as §1

Human CD137 = Human CD137 (human, UniProt Q07011 24-255); assay: cell-based or functional assay
Human PD-L1 [4] = target: T1, Human PD-L1; assay: cell-based or functional assay

T1 sequence (Q9NZQ7 19-290): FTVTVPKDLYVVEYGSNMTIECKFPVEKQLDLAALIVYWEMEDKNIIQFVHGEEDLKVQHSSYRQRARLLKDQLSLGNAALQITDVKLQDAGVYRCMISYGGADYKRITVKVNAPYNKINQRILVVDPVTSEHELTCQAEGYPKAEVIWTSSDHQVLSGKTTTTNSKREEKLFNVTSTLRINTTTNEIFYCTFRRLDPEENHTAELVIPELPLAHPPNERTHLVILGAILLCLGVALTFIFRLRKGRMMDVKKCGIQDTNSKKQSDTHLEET
Chain of Human CD137 (Q07011 24-255): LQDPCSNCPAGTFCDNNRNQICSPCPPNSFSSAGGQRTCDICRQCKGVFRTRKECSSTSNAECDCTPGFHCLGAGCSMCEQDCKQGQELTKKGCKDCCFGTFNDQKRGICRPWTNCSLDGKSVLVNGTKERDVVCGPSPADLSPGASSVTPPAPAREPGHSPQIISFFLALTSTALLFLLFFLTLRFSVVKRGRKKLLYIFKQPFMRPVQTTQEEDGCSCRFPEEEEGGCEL

Binder | binding result (Human PD-L1 [1]) | EC50 (read off the curve) (Human PD-L1 [2]) [µg/mL] | EC50 (read off the curve) (Human PD-L1 [3]) [µg/mL] | EC50 (read off the curve) (Human PD-L1 [1]) [µg/mL] | EC50 value, CD8+ T-cell expansion (donor 1, 0.03 µg/ml anti-CD3) (Human CD137) [µg/mL] | EC50 value, CD8+ T-cell expansion (donor 2, 0.09 µg/ml anti-CD3) (Human CD137) [µg/mL] | EC50 (read off the curve); fold induction in the PD-1/PD-L1 inhibition bioassay, blocked partner human PD-1 (Human PD-L1 [4]) [µg/mL]
B1 | no binding (tested: 10 µg/mL) | – | – | – | – | – | –
B2 | – | ~0.04 | ~0.1 | ~0.05 | – | – | –
B3 | – | – | – | – | 0.0122 | 0.00689 | –
B4 | – | ~0.05 | ~0.2 | ~0.06 | – | – | ~0.1
